Results as given in publication PMC4767726, “Molecular Probing of the HPV-16 E6 Protein Alpha Helix Binding Groove with Small Molecule Inhibitors” (PLoS ONE, 2016).

Tests used:
[1] = target: MBP-E6 F2V (human papillomavirus type 16); test: bead-based binding assay on filter plates (alkaline phosphatase luminescence); MBP-E6 held on amylose beads at indicated concentrations or 0.67 uM; E6AP-BAP added at 50 nM, 1-3 h, room temperature; 400 mM NaCl, 50 mM Tris-HCl pH 6.8, 0.1% milk, 1 mM DTT; amylose bead control subtracted
[2] = target: E6AP-BAP (aa 371-440) fusion protein (UniProt Q05086)
[3] = target: T1, E6AP-BAP (aa 371-440) fusion protein (UniProt Q05086 371-440); test: cell-based or functional assay
T1 sequence (looked up): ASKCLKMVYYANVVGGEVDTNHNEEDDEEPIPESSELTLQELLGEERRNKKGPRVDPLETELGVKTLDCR

Question: Which percent of the wild-type binding capacity (% of wild type) [1] does the source give for “E6AP-BAP (aa 371-440) fusion protein (from UniProt Q05086 371-440) (domain or fragment)” here?
Answer: 70

Question: With MBP-E6 R55A (natural protein) as the molecule, how does the p53 in vitro degradation by purified MBP-E6 in rabbit reticulocyte lysate, 2 h; activity against wild type [2] read?
Answer: 50%

Question: MBP-E6 R102A (natural protein) was tested. Which p53-luciferase reporter level in C33A cells transfected with HPV-16 E6 expression vector (untagged, pLXSN), EC50 in ng of DNA [2] did it give?
Answer: 172 ng

Question: And the p53 in vitro degradation, 3 h incubation, 0.25 and 1 uM MBP-E6 R102A; decrease of p53 [2]?
Answer: 50%

B1: MBP-HPV-16 E6 (wild-type) (natural protein, human papillomavirus type 16, UniProt P03126 1-158, looked up)
chain: MHQKRTAMFQDPQERPRKLPQLCTELQTTIHDIILECVYCKQQLLRREVYDFAFRDLCIVYRDGNPYAVCDKCLKFYSKISEYRHYCYSLYGTTLEQQYNKPLCDLLIRCINCQKPLCPEEKQRHLDKKQRFHNIRGRWTGRCMSCCRSSRTRRETQL
Question: With B1 as the molecule, how does the “p53-luciferase reporter level in C33A cells transfected with HPV-16 E6 expression vector (untagged, pLXSN), EC50 in ng of DNA” value [3] read?
Answer: 32 ng
